Assay results from publication PMC5187420, “Structural insights into ribosomal rescue by Dom34 and Hbs1 at near-atomic resolution” (Nature Communications, 2016).

Target: T1, Hbs1 (S. cerevisiae, UniProt P32769 1-611)
T1 construct: Hbs1, S. cerevisiae, eEF1A-like GTPase; N-terminal domain is seen in the map, linker aa 78-140 disordered; source: E. coli BL21 (DE3), purified (Nickel-NTA, size-exclusion chromatography)
T1 sequence (looked up): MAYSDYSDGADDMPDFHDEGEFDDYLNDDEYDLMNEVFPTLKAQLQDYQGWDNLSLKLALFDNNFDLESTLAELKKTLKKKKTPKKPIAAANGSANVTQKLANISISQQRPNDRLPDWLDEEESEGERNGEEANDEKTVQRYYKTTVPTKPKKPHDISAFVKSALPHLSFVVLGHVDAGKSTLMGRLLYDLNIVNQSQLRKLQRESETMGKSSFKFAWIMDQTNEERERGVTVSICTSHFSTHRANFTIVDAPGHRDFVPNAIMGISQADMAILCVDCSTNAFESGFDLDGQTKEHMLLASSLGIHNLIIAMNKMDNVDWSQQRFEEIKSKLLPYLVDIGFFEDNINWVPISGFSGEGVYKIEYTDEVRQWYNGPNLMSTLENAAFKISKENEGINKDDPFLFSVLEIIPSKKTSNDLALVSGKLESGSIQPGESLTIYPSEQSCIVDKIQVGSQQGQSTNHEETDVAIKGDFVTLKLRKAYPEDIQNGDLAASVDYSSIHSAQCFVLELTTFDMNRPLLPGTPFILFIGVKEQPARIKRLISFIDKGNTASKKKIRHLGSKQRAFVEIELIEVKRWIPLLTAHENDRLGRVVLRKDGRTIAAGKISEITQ
Test: cryo-EM structure; Dom34 and Hbs1 (50 pmol each) pre-incubated with 1 mM GMPPNP in binding buffer (30 mM Hepes pH 7.5), 20 min at 30 °C, then combined with 10 pmol reassociated S. cerevisiae 80S ribosomes programmed with nonstop mRNA and AcPhe-tRNAPhe, 15 min at 30 °C; reconstruction at 3.3 Å
Details: both partners purified

B1: Dom34 (natural protein, S. cerevisiae)
chain: MKVISLKKDSFNKGGAVITLLPEDKEDLFTVYQIVDKDDELIFKKKFTSKLDEAGKKKSTDLVKLKIKVISEDFDMKDEYLKYKGVTVTDESGASNVDIPVGKYLSFTLDYVYPFTIIKQNFNKFMQKLLNEACNIEYKSDTAAVVLQEGIAHVCLVTSSSTILKQKIEYSMPKKKRTTDVLKFDEKTEKFYKAIYSAMKKDLNFDKLKTIILCSPGFYAKILMDKIFQYAEEEHNKKILDNKGMFFIAHCSTGYLQGINEVLKNPLYASKLQDTKYSKEIMVMDEFLLHLNKDDDKAWYGEKEVVKAAEYGAISYLLLTDKVLHSDNIAQREEYLKLMDSVESNGGKALVLSTLHSLGEELDQLTGIACILKYPLPDLDEDDGEE
notes: Dom34, S. cerevisiae; also called Pelota in mammals; source: E. coli BL21 (DE3), purified (Nickel-NTA, size-exclusion chromatography)
binding result: binds
